Experimental data published in PMC9911399, “Two distinct binding modes provide the RNA-binding protein RbFox with extraordinary sequence specificity”.
Changes are numbered by the printed parent chain; changes in the protein carry UniProt numbers.

T1: RbFoxmut (RRM with four substitutions) (UniProt Q9NWB1)
T1 sequence: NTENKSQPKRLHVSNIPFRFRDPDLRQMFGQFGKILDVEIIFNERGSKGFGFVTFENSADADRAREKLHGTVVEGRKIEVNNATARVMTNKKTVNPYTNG

T2: RBFOX1 RRM RbFoxmut (Fox-RRM*) (Homo sapiens, UniProt Q9NWB1 109-208, R118D;E147R;N151S;E152T)
T2 sequence: T1 sequence with R10D, E39R, N43S, E44T

T3: RBFOX1 RRM (Homo sapiens, UniProt Q9NWB1 109-208)
T3 sequence: T1 sequence

T4: RbFox RRM (wt) (UniProt Q9NWB1 109-208)
T4 sequence: T1 sequence


Key:
[1] = molecular target: T1, RbFoxmut (RRM with four substitutions); assay: EMSA; conditions: EMSA: 10 mM Tris pH 7.5, 150 mM NaCl, 3.4 mM EDTA, 0.001% NP-40, 30 C, 10 min, 1 nM RNA, 8% native PAGE; NMR: 10 mM sodium phosphate pH 6.0, 30 mM NaCl, 298 K …
[2] = molecular target: T2, RBFOX1 RRM RbFoxmut (Fox-RRM*); assay: EMSA; 10 mM Tris pH 7.5, 150 mM NaCl, 3.4 mM EDTA, 0.001% NP-40, 30 C; conditions: tags: His6 N-terminal (pET28a); label: 5' 32P
RBFOX1 RRM = molecular target: T3, RBFOX1 RRM; assay: as above; conditions: tags: His6 N-terminal (pET28a); label: 5' 32P
RbFox RRM (wt) = molecular target: T4, RbFox RRM (wt); assay: EMSA; EMSA: 10 mM Tris pH 7.5, 150 mM NaCl, 3.4 mM EDTA, 0.001% NP-40, 30 C, 10 min, 1 nM RNA, 8% native PAGE; NMR: 10 mM sodium phosphate pH 6.0, 30 mM NaCl, 298 K; conditions: protein: recombinant; tags: His6 (HisTrap) for EMSA; His6-GST removed by TEV for NMR; label: 5' 32P (EMSA); unlabeled (NMR)

Row | Molecule | K half [1] | apparent K (half saturation) [2] | further results
1 | UGAAUGU | 35.3 nM | – | –
2 | UACAUGU | – | – | binding signal [1]: -5.01 ln(KA,rel)
3 | UGCAUGU [UGCAUGU (cognate)] | 14.3 nM | – | –
4 | UGAAUGU (ssRNA) | – | 35.3 ± 11.8 nM | apparent K (half saturation) (RBFOX1 RRM): > 17 µM
5 | UGCAUGU (ssRNA) [UGCAUGU (cognate)] | – | – | apparent K (half saturation) (RbFox RRM (wt)): 1.6 ± 0.3 nM
6 | UGCAUGU (ssRNA) | – | 14.3 ± 2.5 nM | –
